Reference: PMC2191085

How the values were obtained:
[1] = target: CD2 on human PBLs (human (endogenous in PBLs)) (UniProt P06729)
[2] = target: CD2 on Jurkat cells (human (endogenous in Jurkat)) (UniProt P06729); assay: inhibition of cell rosetting

Row | Substance | inhibition of T cell proliferation in response to HBsAg, LFA3TIP at 2 ug/ml [1] [%] | fold lower concentration than LFA3TIP for inhibition of rosetting [2] [fold]
1 | LFA3TIP (first domain-LFA-3/IgG1 fusion protein) (Fc fusion) | 85 | 
2 | multimeric phosphoinositol-linked LFA-3 (PI-LFA-3) (ligand) |  | 300
